Data as given in patent publication US20230036213A1.

Molecular target: HLA-DR (human)
Assay: cell-based or functional assay

IFN-gamma production, decrease in the presence of HLA-DR blocking antibodies: 32 to 80%
Binder: GEFRYYPNIIAKGVG [HPIV3 Matrix Epitope Peptide 84 (…)]
